# Measured values taken from PMC5877318.
# B1: 28-bp mouse Igf2-P0 crystallization oligo (dsDNA)
# DNA 1: TGTGGGCGTGGCACAGGTAAAAAGGGCA
# DNA 2: TGCCCTTTTTACCTGTGCCACGCCCACA
# B2: 26-bp mouse Igf2-P0 crystallization oligo (dsDNA)
# DNA 1: GTGGGCGTGGCACAGGTAAAAAGGGC
# DNA 2: GCCCTTTTTACCTGTGCCACGCCCAC
# Key:
# Test in all cases: X-ray crystallography
# mZFP568 ZF2-11 = mZFP568 ZF2-11 (Mus musculus, UniProt E9PYI1 391-665)
# mZFP568 ZF1-11 = mZFP568 ZF1-11 (Mus musculus, UniProt E9PYI1 363-665)
# mZFP568 ZF1-10 = mZFP568 ZF1-10 (Mus musculus, UniProt E9PYI1 363-637)
# Chain of mZFP568 ZF1-10 (E9PYI1 363-637): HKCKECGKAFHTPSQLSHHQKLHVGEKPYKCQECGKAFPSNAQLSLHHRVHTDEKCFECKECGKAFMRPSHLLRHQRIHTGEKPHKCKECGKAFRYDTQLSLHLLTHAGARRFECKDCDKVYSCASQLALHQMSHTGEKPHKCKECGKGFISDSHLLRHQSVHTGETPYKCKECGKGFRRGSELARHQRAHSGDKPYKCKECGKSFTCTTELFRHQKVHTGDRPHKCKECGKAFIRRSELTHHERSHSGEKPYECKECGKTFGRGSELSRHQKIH
# Chain of mZFP568 ZF2-11 (E9PYI1 391-665): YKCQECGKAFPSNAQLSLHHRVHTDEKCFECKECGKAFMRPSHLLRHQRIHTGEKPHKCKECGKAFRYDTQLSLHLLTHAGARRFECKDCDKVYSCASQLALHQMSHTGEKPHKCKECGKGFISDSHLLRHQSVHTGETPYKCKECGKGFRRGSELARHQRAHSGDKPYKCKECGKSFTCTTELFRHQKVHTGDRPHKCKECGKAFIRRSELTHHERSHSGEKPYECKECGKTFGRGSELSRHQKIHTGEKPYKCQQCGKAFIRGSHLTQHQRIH
# Chain of mZFP568 ZF1-11 (E9PYI1 363-665): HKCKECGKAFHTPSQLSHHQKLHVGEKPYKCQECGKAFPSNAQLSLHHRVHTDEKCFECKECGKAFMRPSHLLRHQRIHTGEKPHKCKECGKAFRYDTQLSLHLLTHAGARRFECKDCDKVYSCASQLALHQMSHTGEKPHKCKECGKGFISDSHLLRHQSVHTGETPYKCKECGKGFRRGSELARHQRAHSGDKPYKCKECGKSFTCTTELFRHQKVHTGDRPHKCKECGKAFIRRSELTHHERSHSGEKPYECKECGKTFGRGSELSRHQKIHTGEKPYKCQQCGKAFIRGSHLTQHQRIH
Binder,binding result (mZFP568 ZF2-11),binding result (mZFP568 ZF1-11),binding result (mZFP568 ZF1-10)
B1,binds,binds,
B2,,,binds
